{"source": "patent US20220089784A1", "about": "(University of California, published 2022)", "binders": {"B1": {"name": "6A8M IgG (antibody, V domains shown)", "VH": "QVQLKESGPGLVKPSQTVSLTCTVTGYSITNGNHWWNWIRQVSGSKLEWIGYISSSGYTDINPSLKSRISITRDTSKNQLFLQLNSVTTEDIATYYCARDDGYYEALDYWGQGTSVTVSS", "VL": "DIVMSQSPAIMSASPGEKVTLTCSASSSVSSNYLYWYQQKPGSSPKLWIYSTSNLASGVPARFSGSGSGTSYSLTISRVEAEDAATYYCQQWSSNPPTFGGGTKLEIK", "notes": "IgG converted from scFv"}, "B2": {"name": "26G5 scFv (scFv)", "scFv": "EVQLQESGPGLAKPSQTLSLTCSVTGYSITSDYWNWIRKFPGNKLEYMGYISYSGSTYYNPSLKSRISITRDTSKNQYYLQLNSVTTEDTATYYCARSFYDGYLYFDYWGQGTTVTVSSVDLKSGGSTSGSGKPGSGEGSSGSAREIVLTQSPAILSASPGEKVTMTCSASSSVSYMYWYQQKPGSSPRLLIYDTSNLASGVPARFSGSGSGTSYSLTISRVEAEDAATYYCQQWSSYPPTFGDGTRLEIK", "notes": "mouse"}, "B3": {"name": "26E6 scFv (scFv)", "scFv": "EVQLQQSGPELVKPGASVKISCKASGYTFADYYINWVKQSHGKSLEWIGDFNPNNGDHSYNQKFKDKATLTVDESSNTAYMELRSLTSEDSAVYYCTREFYYYFDVWGTGTTVTVSSVDLKSGGSTSGSGKPGSGEGSSGSARDIVMSQSPLSLPVSLGDQAFISCRFSQSIVHSNGNTYLEWYLQKPGQSPKLLIYKVSNRFSGVPDRFSGSGSGTDFTLKISRVEAEDLGVYYCFQGSHVPYTFGGGTKLEIK", "notes": "mouse"}, "B4": {"name": "26C2 scFv (scFv)", "scFv": "QVQLKQSGPELVKPGASVKLSCKASGYTFTSYDINWVKQRPGQGLEWIGWIYPRDDITKYNEKFKDKATLTVDTSSSTAYMELHSLTSEDSAVYFCARGDYYGSLDYWGQGTTLTVSSVDLKSGGSTSGSGKPGSGEGSSGSARQIVLTQSPAIMSASPGEKVTMTCSASSSVSYMHWYQQKSSTSPKLWIYDTSKLASGVPGRFSGSGSGNSYSLTISSMEAEDVATYYCFQGSGYPLTFGAGTKLEIK", "notes": "mouse"}, "B5": {"name": "26B2 scFv (scFv)", "scFv": "DVQLQESGPELVKPGASVKISCKASGYTFADYYINWVKQSHGKSLEWIGDFNPNNGDHSYNQKFKDKATLTVDESSNTAYMELRSLTSEDSAVYYCTREFYYYFDVWGTGTSVTVSSVDLKSGGSTSGSGKPGSGEGSSGSARDIEMTQTPAIMSASPGEKVTMTCSASSSVSSRYLHWYQQKSGASPKLWIYGTSNLASGVPARFSGSGSGTSYSLTISNVEAEDAATYYCQQYHSDPLTFGAGTKLEIK", "notes": "mouse"}, "B6": {"name": "26D9 scFv (scFv)", "scFv": "DVQLQESGAELVKPGASVKLSCKASGFTFTDYWMHWVKQRPGQGLEWIGMIHPYNGDNNYHEKFKSKATLTVDKSSSTAYMQLSSLTTEDSAVYYCVRNDYDPYYYALDYWGQGTSLTVSAVDLKSGGSTSGSGKPGSGEGSSGSARQIVLTQSPAIMSASPGEKVTMSCRASSSVSYVYWYQQKPGSSPKPWIYRTSNLASGVPVRFSGSGSGTSYSLTISRVEAEDAATYYCQQWSSYPPTFGGGTKLEIK", "notes": "mouse"}, "B7": {"name": "6A3M IgG (antibody, V domains shown)", "VH": "EVQLQQSGAELVKPGASVKLSCKASGYTFTSYWMHWIKQRPGQGLEWIGVIDPSDSYTNYNQKFKGKATLTVDTSSSTAYMQLSSLTSEDSAVYYCATGGNGFFDYWGQGTTLTVSS", "VL": "DIVLTQSPASLAVSLGQRATISCRASESVDYDGDSYMNWYQQKPGQPPKLLIYAASNLESGIPARFSGSGSGTDFTLNIHPVEEEDAATYYCLQSNEAPWTFGGGTKLELK", "notes": "IgG converted from scFv"}, "B8": {"name": "6A4M IgG (antibody, V domains shown)", "VH": "EVQLQQSGAELVRPGTSVKLSCKASGYTFTSYWMHWVKQRPGQGLEWIGVIDPSDSYTNYNQKFKGKATLTVDTSSSTAYMQLSSLASEDSAVYYCARYPGNRAMDYWGQGTSVTVSS", "VL": "DIVLTQSPASLAVSLGQRATISCRASESVDYDGDSYMNWYQQKPGQPPKLLIYAASNLESGIPARFSGSGSGTDFTLNIHPVEEEDAATYYCLQSNEAPWTFGGGTKLEIK", "notes": "IgG converted from scFv"}, "B9": {"name": "B4 (antibody) (antibody, V domains shown)", "VH": "QVQLVESGGGVVRPGGSLRLSCAASGFTFDDYGMSWVRQAPGKGLEWVSAINWNGGNTGYADSVKGRFTISRDNAKNSLYLQMNSLRVEDTALYHCAREGDYGGLYFDYWGQGTLVTVSS", "VL": "not shown"}}, "key": {"[1]": {"molecular_target": "T1, BoNT/A1 holotoxin (Hall hyper) (Clostridium botulinum, UniProt P0DPI0 2-1296)", "assay": "KinExA, IgG"}, "[2]": {"molecular_target": "BoNT/A light chain (recombinant) (Clostridium botulinum, UniProt P0DPI0 1-448)", "assay": "KinExA, IgG"}, "[3]": {"molecular_target": "T2, BoNT/B1 (Clostridium botulinum, UniProt P10844 2-1291)", "T2 sequence": "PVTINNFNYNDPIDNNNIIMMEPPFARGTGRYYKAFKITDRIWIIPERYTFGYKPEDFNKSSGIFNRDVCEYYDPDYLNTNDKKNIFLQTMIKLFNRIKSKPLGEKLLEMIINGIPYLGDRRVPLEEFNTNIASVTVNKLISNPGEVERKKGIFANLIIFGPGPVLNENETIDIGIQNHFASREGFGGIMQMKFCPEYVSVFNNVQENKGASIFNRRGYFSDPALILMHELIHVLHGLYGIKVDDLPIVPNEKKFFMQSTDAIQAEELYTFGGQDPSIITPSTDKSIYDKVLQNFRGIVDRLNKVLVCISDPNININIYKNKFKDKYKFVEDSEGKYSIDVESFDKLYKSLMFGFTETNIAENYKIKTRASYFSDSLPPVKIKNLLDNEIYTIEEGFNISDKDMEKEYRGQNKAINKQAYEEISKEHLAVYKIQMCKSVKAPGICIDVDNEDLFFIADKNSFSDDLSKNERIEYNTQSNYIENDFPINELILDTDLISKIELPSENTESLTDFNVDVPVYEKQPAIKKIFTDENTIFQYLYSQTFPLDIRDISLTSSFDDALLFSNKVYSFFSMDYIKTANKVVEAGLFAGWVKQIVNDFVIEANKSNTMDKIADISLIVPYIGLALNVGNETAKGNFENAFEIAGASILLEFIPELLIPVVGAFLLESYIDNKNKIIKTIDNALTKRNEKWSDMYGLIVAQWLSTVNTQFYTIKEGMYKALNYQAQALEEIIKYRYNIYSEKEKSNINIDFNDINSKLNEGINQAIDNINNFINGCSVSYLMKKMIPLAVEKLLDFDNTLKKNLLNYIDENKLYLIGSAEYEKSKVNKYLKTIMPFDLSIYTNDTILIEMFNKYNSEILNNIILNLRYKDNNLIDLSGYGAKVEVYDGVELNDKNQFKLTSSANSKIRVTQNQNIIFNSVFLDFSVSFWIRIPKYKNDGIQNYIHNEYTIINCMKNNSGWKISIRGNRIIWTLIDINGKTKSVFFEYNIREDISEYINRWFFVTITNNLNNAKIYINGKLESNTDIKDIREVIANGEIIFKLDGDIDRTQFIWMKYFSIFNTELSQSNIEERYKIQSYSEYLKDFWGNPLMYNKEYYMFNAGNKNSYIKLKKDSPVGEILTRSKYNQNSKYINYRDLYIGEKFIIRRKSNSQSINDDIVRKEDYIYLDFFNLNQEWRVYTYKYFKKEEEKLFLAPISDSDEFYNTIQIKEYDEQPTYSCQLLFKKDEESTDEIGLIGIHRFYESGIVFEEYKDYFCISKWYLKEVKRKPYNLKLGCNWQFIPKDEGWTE", "assay": "yeast scFv FACS"}, "[4]": {"molecular_target": "T3, BoNT/B HC (C-terminal domain of the BoNT/B heavy chain, recombinant) (Clostridium botulinum, UniProt P10844 853-1291)", "T3 sequence": "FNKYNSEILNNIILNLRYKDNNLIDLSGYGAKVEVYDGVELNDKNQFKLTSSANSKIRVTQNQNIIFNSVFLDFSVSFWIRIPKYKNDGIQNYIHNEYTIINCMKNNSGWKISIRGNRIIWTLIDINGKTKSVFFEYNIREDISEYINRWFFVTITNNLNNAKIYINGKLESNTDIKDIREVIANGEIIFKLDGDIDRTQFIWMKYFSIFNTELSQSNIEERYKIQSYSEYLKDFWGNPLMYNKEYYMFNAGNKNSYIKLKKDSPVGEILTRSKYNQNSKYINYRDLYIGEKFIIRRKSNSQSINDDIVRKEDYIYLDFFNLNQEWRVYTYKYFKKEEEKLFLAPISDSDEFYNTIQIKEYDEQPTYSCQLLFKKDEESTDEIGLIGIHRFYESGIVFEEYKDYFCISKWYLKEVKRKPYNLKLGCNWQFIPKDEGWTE", "assay": "yeast scFv FACS"}, "[5]": {"molecular_target": "T1, BoNT/A1 holotoxin (Hall hyper)"}}, "note": "Like-named read-outs stand apart in the source and are kept apart here.", "data": [{"binder": "B1", "values": [{"measurement": "Kd", "setting": "[1]", "value": 0.852, "unit": "nM"}, {"measurement": "Kd", "setting": "[2]", "value": 4.99, "unit": "nM"}]}, {"binder": "B2", "values": [{"measurement": "Kd", "setting": "[3]", "value": 3.91, "unit": "nM"}, {"measurement": "Kd", "setting": "[4]", "value": 1.79, "unit": "nM"}]}, {"binder": "B3", "values": [{"measurement": "Kd", "setting": "[3]", "value": 4.85, "unit": "nM"}, {"measurement": "Kd", "setting": "[4]", "value": 0.889, "unit": "nM"}]}, {"binder": "B4", "values": [{"measurement": "Kd", "setting": "[3]", "value": 23.7, "unit": "nM"}, {"measurement": "Kd", "setting": "[4]", "value": 7.76, "unit": "nM"}]}, {"binder": "B5", "values": [{"measurement": "Kd", "setting": "[3]", "value": 0.276, "unit": "nM"}, {"measurement": "Kd", "setting": "[4]", "value": 0.086, "unit": "nM"}]}, {"binder": "B6", "values": [{"measurement": "Kd", "setting": "[3]", "value": 0.582, "unit": "nM"}, {"measurement": "Kd", "setting": "[4]", "value": 0.089, "unit": "nM"}]}, {"binder": "B7", "values": [{"measurement": "Kd", "setting": "[2]", "value": 10, "unit": "nM"}]}, {"binder": "B8", "values": [{"measurement": "Kd", "setting": "[2]", "value": 21, "unit": "nM"}]}, {"binder": "B9", "values": [{"measurement": "Kd", "setting": "[5]", "value": 0.0931, "unit": "nM"}]}]}
